The source of these data is the supplement of paper PMC11246515.

The nature of this data set: total protein half-life in vivo (active degradation + dilution); higher = more stable protein.
The mark [1] stands for this setting: E. coli NCM3722 delta-clpP delta-lon delta-hslV, growth: N-lim chemostat, doubling time 6 h.
The mark [2] stands for this setting: E. coli NCM3722 delta-clpP, growth: N-lim chemostat, doubling time 6 h.
[3] abbreviates: E. coli NCM3722 delta-hslV, growth: N-lim chemostat, doubling time 6 h.
[4] abbreviates: E. coli NCM3722 delta-lon, growth: N-lim chemostat, doubling time 6 h.
Setting [5] is: E. coli NCM3722 delta-smpB, growth: N-lim chemostat, doubling time 6 h.
Setting [6] is: wild type E. coli NCM3722, growth: C-lim chemostat, doubling time 3 h.
Setting [7] is: wild type E. coli NCM3722, growth: C-lim chemostat, doubling time 6 h.
Where [8] appears, read: wild type E. coli NCM3722, growth: C-lim chemostat, doubling time 12 h.
[9] abbreviates: wild type E. coli NCM3722, growth: N-lim chemostat, doubling time 6 h.
Where [10] appears, read: wild type E. coli NCM3722, growth: N-lim chemostat, doubling time 12 h.
Setting [11] is: wild type E. coli NCM3722, growth: P-lim chemostat, doubling time 6 h.
Where [12] appears, read: wild type E. coli NCM3722, growth: P-lim chemostat, doubling time 12 h.

± gives the standard deviation of the averaged measurements.

Regarding “METYAVFGNPIAHSKSPFIHQQFAQQLNIEHPYGRVLAPINDFINTLNAFFSAGGKGANVTVPFKEEAFARADELTERAALAGAVNTLMRLEDGRLLGDNTDGVGLLSDLERLSFIRPGLRILLIGAGGASRGVLLPLLSLDCAVTITNRTVSRAEELAKLFAHTGSIQALSMDELEGHEFDLIINATSSGISGDIPAIPSSLIHPGIYCYDMFYQKGKTPFLAWCEQRGSKRNADGLGMLVAQAAHAFLLWHGVLPDVEPVIKQLQEELSA”, the “total protein half-life in vivo” value is, setting by setting: under setting [1], 4 ± 0.39 h; under setting [2], 4.39 ± 0.89 h; under setting [3], 4.03 ± 0.27 h; under setting [4], 6.18 ± 2.5 h; under setting [5], 3.9 ± 0.14 h; under setting [6], 2.4 ± 0.59 h. Besides, the “total protein half-life in vivo” value under setting [7] was 5.428 ± 0.014 h; the “total protein half-life in vivo” value under setting [8] was 8.94 ± 2.3 h; the “total protein half-life in vivo” value under setting [9] came to 4.16 ± 0.36 h; the “total protein half-life in vivo” value under setting [10] came out at 6.95 ± 0.015 h; the “total protein half-life in vivo” value under setting [11] came to 6.01 ± 0.18 h; the “total protein half-life in vivo” value under setting [12] was determined as 11.7 ± 1.5 h.

With “MKIYLVGGAVRDALLGLPVKDRDWVVVGSTPQEMLDAGYQQVGRDFPVFLHPQTHEEYALARTERKSGSGYTGFTCYAAPDVTLEDDLKRRDLTINALAQDDNGEIIDPYNGLGDLQNRLLRHVSPAFGEDPLRVLRVARFAARYAHLGFRIADETLALMREMTHAGELEHLTPERVWKETESALTTRNPQVFFQVLRDCGALRVLFPEIDALFGVPAPAKWHPEIDTGIHTLMTLSMAAMLSPQVDVRFATLCHDLGKGLTPPELWPRHHGHGPAGVKLVEQLCQRLRVPNEIRDLARLVAEFHDLIHTFPMLNPKTIVKLFDSIDAWRKPQRVEQLALTSEADVRGRTGFESADYPQGRWLREAWEVAQSVPTKAVVEAGFKGVEIREELTRRRIAAVASWKEQRCPKPE”, the “total protein half-life in vivo” value is, setting by setting: under setting [1], 4.23 ± 0.88 h; under setting [2], 3.75 ± 0.11 h; under setting [3], 3.29 ± 0.057 h; under setting [4], 3.79 ± 0.16 h; under setting [5], 3.37 ± 0.045 h; under setting [6], 2.96 ± 0.27 h. Also, the “total protein half-life in vivo” value is 5.06 ± 0.79 h under setting [7]; 8.37 ± 0.69 h under setting [8]; 3.48 ± 0.28 h under setting [9]; 5.55 ± 0.2 h under setting [10]; 5.114 ± 0.016 h under setting [11]; 9.86 ± 0.35 h under setting [12].

On to “MSDMNNPADDNNGAMDDLWAEALSEQKSTSSKSAAETVFQQFGGGDVSGTLQDIDLIMDIPVKLTVELGRTRMTIKELLRLTQGSVVALDGLAGEPLDILINGYLIAQGEVVVVADKYGVRITDIITPSERMRRLSR”, for which the “total protein half-life in vivo” value under setting [1] is 5.45 ± 0.45 h; the “total protein half-life in vivo” value under setting [5] is greater than 8 h; the “total protein half-life in vivo” value under setting [6] amounted to 2.75 ± 0.5 h; the “total protein half-life in vivo” value under setting [7] came out at 4.23 ± 0.055 h; the “total protein half-life in vivo” value under setting [8] is 7.08 ± 1.4 h.

Turning to “MLSAFQLENNRLTRLEVEESQPLVNAVWIDLVEPDDDERLRVQSELGQSLATRPELEDIEASARFFEDDDGLHIHSFFFFEDAEDHAGNSTVAFTIRDGRLFTLRERELPAFRLYRMRARSQSMVDGNAYELLLDLFETKIEQLADEIENIYSDLEQLSRVIMEGHQGDEYDEALSTLAELEDIGWKVRLCLMDTQRALNFLVRKARLPGGQLEQAREILRDIESLLPHNESLFQKVNFLMQAAMGFINIEQNRIIKIFSVVSVVFLPPTLVASSYGMNFEFMPELKWSFGYPGAIIFMILAGLAPYLYFKRKNWL [P0ABI4]”, the “total protein half-life in vivo” value is, setting by setting: under setting [1], 5.99 ± 0.074 h; under setting [2], 6.305 ± 0.044 h; under setting [3], 5.99 ± 0.58 h; under setting [5], 6.4 ± 0.16 h; under setting [6], 3 ± 0.35 h; under setting [7], 6.15 ± 0.071 h. Moreover, the “total protein half-life in vivo” value under setting [8] amounted to 11.8 ± 0.14 h; the “total protein half-life in vivo” value under setting [9] was 6.07 ± 0.69 h; the “total protein half-life in vivo” value under setting [10] was 11.7 ± 2 h; the “total protein half-life in vivo” value under setting [11] stood at 5.62 ± 0.18 h; the “total protein half-life in vivo” value under setting [12] came to 12.6 ± 0.23 h.

With “MSMSHINYNHLYYFWHVYKEGSVVGAAEALYLTPQTITGQIRALEERLQGKLFKRKGRGLEPSELGELVYRYADKMFTLSQEMLDIVNYRKESNLLFDVGVADALSKRLVSSVLNAAVVEGEPIHLRCFESTHEMLLEQLSQHKLDMIISDCPIDSTQQEGLFSVRIGECGVSFWCTNPPPEKPFPACLEERRLLIPGRRSMLGRKLLNWFNSQGLNVEILGEFDDAALMKAFGAMHNAIFVAPTLYAYDFYADKTVVEIGRVENVMEEYHAIFAERMIQHPAVQRICNTDYSALFSPAVR [P0A9G2]”, the “total protein half-life in vivo” value reads like this: under setting [1], 6.03 ± 0.4 h; under setting [2], 6.18 h; under setting [3], 4.38 h; under setting [4], 5.99 ± 1.4 h; under setting [5], 5.21 ± 0.34 h; under setting [7], 5.51 h. Further, the “total protein half-life in vivo” value reads like this: under setting [8], 9.31 h; under setting [9], 5.76 ± 1.2 h; under setting [11], 4.93 ± 1.5 h; under setting [12], 10.2 h.

Regarding “MLNQLDNLTERVRGSNKLVDRWLHVRKHLLVAYYNLVGIKPGKESYMRLNEKALDDFCQSLVDYLSAGHFSIYERILHKLEGNGQLARAAKIWPQLEANTQQIMDYYDSSLETAIDHDNYLEFQQVLSDIGEALEARFVLEDKLILLVLDAARVKHPA [P0AFX4]”, the “total protein half-life in vivo” value under setting [2] came to 6.38 h; the “total protein half-life in vivo” value under setting [3] came out at 2.42 ± 0.21 h; the “total protein half-life in vivo” value under setting [4] worked out at 2.8 h; the “total protein half-life in vivo” value under setting [5] was determined as 2.38 ± 0.34 h; the “total protein half-life in vivo” value under setting [7] was found to be 3.06 ± 0.11 h; the “total protein half-life in vivo” value under setting [8] was 5.14 ± 0.081 h. Further, the “total protein half-life in vivo” value came to 2.51 ± 0.29 h under setting [9], 3.09 ± 0.19 h under setting [10], 3.51 h under setting [11] and 5.62 ± 0.091 h under setting [12].

With “MAWNQPGNNGQDRDPWGSSKPGGNSEGNGNKGGRDQGPPDLDDIFRKLSKKLGGLGGGKGTGSGGGSSSQGPRPQLGGRVVTIAAAAIVIIWAASGFYTIKEAERGVVTRFGKFSHLVEPGLNWKPTFIDEVKPVNVEAVRELAASGVMLTSDENVVRVEMNVQYRVTNPEKYLYSVTSPDDSLRQATDSALRGVIGKYTMDRILTEGRTVIRSDTQRELEETIRPYDMGITLLDVNFQAARPPEEVKAAFDDAIAARENEQQYIREAEAYTNEVQPRANGQAQRILEEARAYKAQTILEAQGEVARFAKLLPEYKAAPEITRERLYIETMEKVLGNTRKVLVNDKGGNLMVLPLDQMLKGGNAPAAKSDNGASNLLRLPPASSSTTSGASNTSSTSQGDIMDQRRANAQRNDYQRQGE [P0ABC7]”, the “total protein half-life in vivo” value is, setting by setting: under setting [1], 7 ± 0.75 h; under setting [3], 6.71 ± 0.23 h; under setting [4], 6.55 ± 0.23 h; under setting [5], 6.38 ± 0.49 h; under setting [6], 2.99 ± 0.1 h; under setting [7], 6.35 ± 0.6 h. The “total protein half-life in vivo” value worked out at 13.1 ± 1 h under setting [8]; 6.52 ± 0.65 h under setting [9]; 13.8 ± 0.55 h under setting [10]; 6.06 ± 0.31 h under setting [11]; 13.98 ± 0.078 h under setting [12].
